B1: LetB six-ring truncation mutant (ring 6 deleted), TM helix removed (domain or fragment)
chain: QDRGNTVTIDFMSADGIVPGRTPVRYQGVEVGTVQDISLSDDLRKIEVKVSIKSDMKDALREETQFWLVTPKASLAGVSGLDALVGGNYIGMMPGKGKEQDHFVALDTQPKYRLDNGDLMIHLQAPDLGSLNSGSLVYFRKIPVGKVYDYAINPNKQGVVIDVLIERRFTDLVKKGSRFWNVSGVDANVSISGAKVKLESLAALVNGAIAFDSPEESKPAEAEDTFGLYEDLAHSQRGVIIKLELPSGAGLTADSTPLMYQGLEVGQLTKLDLNPGGKVTGEMTVDPSVVTLLRENTRIELRNPKLSLSDANLSALLTGKTFELVPGDGEPRKEFVVVPGEKALLHEPDVLTLTLTAPESYGIDAGQPLILHGVQVGQVIDRKLTSKGVTFTVAIEPQHRELVKGDSKFVVNSRVDVKVGLDGVEFLGASASEWINGGIRILPGDKGEMKASYPLYANLEKALENSLSDLPTTTVSLSAETLPDVQAGSVVLYRKFEVGEVITVRPRANAFDIDLHIKPEYRNLLTSNSVFWAEGGAKVQLNGSGLTVQASPLSRALKGAISFDNLSGASASQRKGDKRILYASETAARAVTITDSRYLDGLSIIVEAPEAGSLGIGTPVLFRGLEVGTVTGMTLGTLSDRVMIAMRISKRYQHLVRNNSVFWLASGYSLDFGLTGGVVKTGTFNQFIRGGIAFATPPGTPLAPKAQEGKHFLLQESEPKEWREWGTALPK
B2: LetB four-ring truncation mutant (rings 2-4 deleted), TM helix removed (domain or fragment)
chain: QDRGNTVTIDFMSADGIVPGRTPVRYQGVEVGTVQDISLSDDLRKIEVKVSIKSDMKDALREETQFWLVTPKASLAGVSGLDALVGGNYIGMMPGKGKEQDHFVALDTQPKYRLDNGNLEKALENSLSDLPTTTVSLSAETLPDVQAGSVVLYRKFEVGEVITVRPRANAFDIDLHIKPEYRNLLTSNSVFWAEGGAKVQLNGSGLTVQASPLSRALKGAISFDNLSGASASQRKGDKRILYASETAARAVGGQITLHAFDAGKLAVGMPIRYLGIDIGQIQTLDLITARNEVQAKAVLYPEYVQTFARGGTRFSVVTPQISAAGVEHLDTILQPYINVEPGRGNPRRDFELQEATITDSRYLDGLSIIVEAPEAGSLGIGTPVLFRGLEVGTVTGMTLGTLSDRVMIAMRISKRYQHLVRNNSVFWLASGYSLDFGLTGGVVKTGTFNQFIRGGIAFATPPGTPLAPKAQEGKHFLLQESEPKEWREWGTALPK
B3: LetB periplasmic portion (residues 43-877) (domain or fragment, E. coli, UniProt P76272 43-877, looked up)
chain: QDRGNTVTIDFMSADGIVPGRTPVRYQGVEVGTVQDISLSDDLRKIEVKVSIKSDMKDALREETQFWLVTPKASLAGVSGLDALVGGNYIGMMPGKGKEQDHFVALDTQPKYRLDNGDLMIHLQAPDLGSLNSGSLVYFRKIPVGKVYDYAINPNKQGVVIDVLIERRFTDLVKKGSRFWNVSGVDANVSISGAKVKLESLAALVNGAIAFDSPEESKPAEAEDTFGLYEDLAHSQRGVIIKLELPSGAGLTADSTPLMYQGLEVGQLTKLDLNPGGKVTGEMTVDPSVVTLLRENTRIELRNPKLSLSDANLSALLTGKTFELVPGDGEPRKEFVVVPGEKALLHEPDVLTLTLTAPESYGIDAGQPLILHGVQVGQVIDRKLTSKGVTFTVAIEPQHRELVKGDSKFVVNSRVDVKVGLDGVEFLGASASEWINGGIRILPGDKGEMKASYPLYANLEKALENSLSDLPTTTVSLSAETLPDVQAGSVVLYRKFEVGEVITVRPRANAFDIDLHIKPEYRNLLTSNSVFWAEGGAKVQLNGSGLTVQASPLSRALKGAISFDNLSGASASQRKGDKRILYASETAARAVGGQITLHAFDAGKLAVGMPIRYLGIDIGQIQTLDLITARNEVQAKAVLYPEYVQTFARGGTRFSVVTPQISAAGVEHLDTILQPYINVEPGRGNPRRDFELQEATITDSRYLDGLSIIVEAPEAGSLGIGTPVLFRGLEVGTVTGMTLGTLSDRVMIAMRISKRYQHLVRNNSVFWLASGYSLDFGLTGGVVKTGTFNQFIRGGIAFATPPGTPLAPKAQEGKHFLLQESEPKEWREWGTALPK
B4: LetB five-ring truncation mutant (rings 5 and 6 deleted), TM helix removed (domain or fragment)
chain: QDRGNTVTIDFMSADGIVPGRTPVRYQGVEVGTVQDISLSDDLRKIEVKVSIKSDMKDALREETQFWLVTPKASLAGVSGLDALVGGNYIGMMPGKGKEQDHFVALDTQPKYRLDNGDLMIHLQAPDLGSLNSGSLVYFRKIPVGKVYDYAINPNKQGVVIDVLIERRFTDLVKKGSRFWNVSGVDANVSISGAKVKLESLAALVNGAIAFDSPEESKPAEAEDTFGLYEDLAHSQRGVIIKLELPSGAGLTADSTPLMYQGLEVGQLTKLDLNPGGKVTGEMTVDPSVVTLLRENTRIELRNPKLSLSDANLSALLTGKTFELVPGDGEPRKEFVVVPGEKALLHEPDVLTLTLTAPESYGIDAGQPLILHGVQVGQVIDRKLTSKGVTFTVAIEPQHRELVKGDSKFVVNSRVDVKVGLDGVEFLGASASEWINGGIRILPGDKGEMKASYPLYANLEKALENSLSDLPTTITDSRYLDGLSIIVEAPEAGSLGIGTPVLFRGLEVGTVTGMTLGTLSDRVMIAMRISKRYQHLVRNNSVFWLASGYSLDFGLTGGVVKTGTFNQFIRGGIAFATPPGTPLAPKAQEGKHFLLQESEPKEWREWGTALPK

How the values were obtained:
[1] = biological target: the molecule itself; experiment: negative stain EM
[2] = biological target: the molecule itself; experiment: cryo-EM structure

Protein	stoichiometry N [1]	stoichiometry N [2]
B1	6	–
B2	6	–
B3	–	6
B4	6	–
